Source: publication doi:10.1101/2023.04.21.537819, “DNA damage-induced interaction between a lineage addiction oncogenic transcription factor and the MRN complex shapes a tissue-specific DNA Damage Response and cancer predisposition” (bioRxiv, 2023)

Target: T1, mCherry-LacR-MITF (human, UniProt O75030-9 1-419)
T1 construct: MITF, human; In the self-association test the second copy was MITF-GFP (pEGFP-C1-MITF, Ngeow et al. 2018) in place of mCherry-LacR; also called LacR-mCherry-MITF; MITF WT; source: U2OS-LacO#13 cells, transfected, in cells; not shown: mCherry-LacR, N-terminal, kept
T1 sequence (looked up): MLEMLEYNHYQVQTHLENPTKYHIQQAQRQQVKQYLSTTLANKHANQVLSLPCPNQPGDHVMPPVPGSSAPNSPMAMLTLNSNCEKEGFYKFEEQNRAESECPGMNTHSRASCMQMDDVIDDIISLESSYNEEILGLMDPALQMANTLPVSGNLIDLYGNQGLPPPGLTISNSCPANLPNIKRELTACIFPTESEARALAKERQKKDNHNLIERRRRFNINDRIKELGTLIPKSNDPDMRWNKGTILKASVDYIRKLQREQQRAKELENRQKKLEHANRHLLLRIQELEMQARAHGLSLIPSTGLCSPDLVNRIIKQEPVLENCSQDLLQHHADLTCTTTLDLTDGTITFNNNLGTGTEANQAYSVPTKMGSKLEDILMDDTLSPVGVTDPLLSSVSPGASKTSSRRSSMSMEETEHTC
Experiment: LacR/LacO nuclear tethering assay; U2OS-LacO#13 cells transfected 24 h with an mCherry-LacR bait (tethered at the LacO array) and a GFP-tagged prey; fixed, confocal microscopy; ratio of GFP fluorescence inside the mCherry dot to the rest of the nucleus
Conditions: partners not purified

- median enrichment of GFP at the mCherry dot over the rest of the nucleus: 7 fold
B1: NBS1-GFP (natural protein, UniProt O60934 1-754, looked up)
chain: MWKLLPAAGPAGGEPYRLLTGVEYVVGRKNCAILIENDQSISRNHAVLTANFSVTNLSQTDEIPVLTLKDNSKYGTFVNEEKMQNGFSRTLKSGDGITFGVFGSKFRIEYEPLVACSSCLDVSGKTALNQAILQLGGFTVNNWTEECTHLVMVSVKVTIKTICALICGRPIVKPEYFTEFLKAVESKKQPPQIESFYPPLDEPSIGSKNVDLSGRQERKQIFKGKTFIFLNAKQHKKLSSAVVFGGGEARLITEENEEEHNFFLAPGTCVVDTGITNSQTLIPDCQKKWIQSIMDMLQRQGLRPIPEAEIGLAVIFMTTKNYCDPQGHPSTGLKTTTPGPSLSQGVSVDEKLMPSAPVNTTTYVADTESEQADTWDLSERPKEIKVSKMEQKFRMLSQDAPTVKESCKTSSNNNSMVSNTLAKMRIPNYQLSPTKLPSINKSKDRASQQQQTNSIRNYFQPSTKKRERDEENQEMSSCKSARIETSCSLLEQTQPATPSLWKNKEQHLSENEPVDTNSDNNLFTDTDLKSIVKNSASKSHAAEKLRSNKKREMDDVAIEDEVLEQLFKDTKPELEIDVKVQKQEEDVNVRKRPRMDIETNDTFSDEAVPESSKISQENEIGKKRELKEDSLWSAKEISNNDKLQDDSEMLPKKLLLTEFRSLVIKNSTSRNPSGINDDYGQLKNFKKFKKVTYPGAGKLPHIIGGSDLIAHHARKNTELEEWLRQEMEVQNQHAKEESLADDLFRYNPYLKRRR
notes: NBS1 (nibrin), component of the MRN complex; plasmid pcDNA3.1(+)-C-eGFP-NBS1 from GenScript; also called GFP-NBS1; pcDNA3.1(+)-C-eGFP-NBS1; source: U2OS-LacO#13 cells, transfected, in cells; not shown: eGFP, C-terminal, kept
